The target of experiment [1] is T1, human CD3ε antigen (human, UniProt P07766 23-126).
T1 construct: Immobilized on the BIAcore chip; The construct (tag, limits) is not described
Kind of experiment: BIAcore (SPR), antigen immobilized on chip, antibody injected at 5 concentrations.

In experiment [2] the target is T2, human CD19 antigen (human, UniProt P15391 20-291).
T2 sequence (looked up): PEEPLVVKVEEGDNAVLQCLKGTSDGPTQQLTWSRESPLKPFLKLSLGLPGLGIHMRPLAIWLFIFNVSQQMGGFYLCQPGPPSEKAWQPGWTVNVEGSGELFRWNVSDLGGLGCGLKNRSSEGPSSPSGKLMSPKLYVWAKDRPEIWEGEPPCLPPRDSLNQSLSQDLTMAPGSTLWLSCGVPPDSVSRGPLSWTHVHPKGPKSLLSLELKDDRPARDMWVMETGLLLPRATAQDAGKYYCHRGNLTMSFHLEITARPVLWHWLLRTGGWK
Kind of experiment: BIAcore (SPR), CD19 captured on anti-His chip, antibody injected at 5 concentrations. On the technique in general: SPR reads the build-up and loss of mass on a sensor chip optically.

Experiment [3] has as its target T3, CD20 (stably transfected into K562 cells) (UniProt P11836 1-297, limits assumed).
T3 sequence (looked up): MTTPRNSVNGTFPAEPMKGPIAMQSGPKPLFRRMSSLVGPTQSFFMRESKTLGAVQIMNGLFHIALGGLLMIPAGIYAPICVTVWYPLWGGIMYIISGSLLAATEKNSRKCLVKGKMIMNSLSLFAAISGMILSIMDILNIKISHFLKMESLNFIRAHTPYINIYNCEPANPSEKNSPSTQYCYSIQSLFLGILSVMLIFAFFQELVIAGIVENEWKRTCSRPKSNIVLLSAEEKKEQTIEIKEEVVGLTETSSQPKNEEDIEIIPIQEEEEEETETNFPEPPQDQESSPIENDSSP
Kind of experiment: cell-based or functional assay.

Experiment [4] deals with T1, human CD3ε antigen. Description: BIAcore (SPR), antigen immobilized on chip, antibody injected at 5 concentrations. This is another data set of the same source.
The target of experiment [5] is T2, human CD19 antigen. Kind of experiment: BIAcore (SPR), CD19 captured on anti-His chip, antibody injected at 5 concentrations. The source holds these as a separate data set.

Where two headings read alike, the source gives them in different places.

T1 sequence (P07766 23-126): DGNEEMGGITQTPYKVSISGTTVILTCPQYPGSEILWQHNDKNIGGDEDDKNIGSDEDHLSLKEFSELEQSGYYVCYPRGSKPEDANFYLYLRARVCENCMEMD

B1: CD3XCD19 bispecific antibody (antibody A) (bispecific antibody)
chain 1: EIVLTQSPATLSVTPGERATLSCSASSSVSYMHWYQKKPGQAPRLLIYDTSKLASGIPARFSGSGSGTDFTLTISSLEPEDFAVYYCFQGSVYPFTFGCGTKLEIKRTVAAEVQLVESGGGLVQPGGSLRLSCAASGFTFNTYAMNWVRKAPGKGLEWVGRIRSKYNNYATYYADSVDKGRFTISRDDSKNSLYLQMNSLKTEDTAVYYCVRHGNFGNSYVSWFAYWGQGTLVTVSS
chain 2: EAVVTQEPSLTVSPGGTVTLTCRSSTGAVTTSNYANWVQDKPGQAPRGLIGGTNKRAPWTPARFSGSLLGGKAALTITGAQPEDEAEYYCALWYSNLWVFGGGTKLTVLRTVAAQVQLQESGPGLVKPSQTLSLTCTVSGGSISTSGMGVGWIRDHPGKCLEWIGHIWWDDDKRYNPALKSRVTISVDTSKNQFSLKLSSVTAADTAVYYCARMELWSYYFDYWGQGTTLTVSSASEPKSDKTHTCPPCPAPPVAGGPSVFLFPPKPKDTLMISRTPEVTCVVVDVSQEDPEVKFNWYVDGVEVHNAKTKPREEQFNSTYRVVSVLTVLHQDWLNGKEYKCKVSNKGLPSSIEKTISKAKGQPREPQVYTLPPCRDELTKNQVSLWCLVKGFYPSDIAVEWESNGQPENNYKTTPPVLDSDGSFFLYSKLTVDKSRWQQGNVFSCSVMHEALHNHYTQKSLSLSPGK
chain 3: DKTHTCPPCPAPPVAGGPSVFLFPPKPKDTLMISRTPEVTCVVVDVSQEDPEVKFNWYVDGVEVHNAKTKPREEQFNSTYRVVSVLTVLHQDWLNGKEYKCKVSNKGLPSSIEKTISKAKGQPREPQVCTLPPSRDELTKNQVSLSCAVKGFYPSDIAVEWESNGQPENNYKTTPPVLDSDGSFFLVSKLTVDKSRWQQGNVFSCSVMHEALHNRFTQKSLSLSPGK
notes: Three-polypeptide bispecific made in CHO3E7 cells; The description speaks of a disulfide bond between CD19 VL and VH, charge substitutions and a knob-in-hole Fc
One may read the Kd as the concentration at which binding is half-saturated. Read a high Kd as weaker binding. In general, koff refers to the first-order rate constant of dissociation. By kon is commonly meant the rate constant with which the complex forms. Higher therefore signals faster complex formation. As for B1, in the experiment with human CD3ε antigen [1], the Kd is 31.4 nM, the koff amounted to 0.0153 s⁻¹ and the kon came to 488000 M⁻¹ s⁻¹. In the experiment with human CD19 antigen [2], this molecule had a Kd of 1.83 nM, a koff of 0.000669 s⁻¹ and a kon of 365000 M⁻¹ s⁻¹.

B2: CD3XCD19XCD20 tri-specific antibody (antibody #1) (other)
chain 1: EIVLTQSPATLSVTPGERATLSCSASSSVSYMHWYQKKPGQAPRLLIYDTSKLASGIPARFSGSGSGTDFTLTISSLEPEDFAVYYCFQGSVYPFTFGCGTKLEIKRTVAAEVQLVESGGGLVQPGGSLRLSCAASGFTFSTYAMNWVRQAPGKGLEWVGRIRSKYNNYATYYADSVKGRFTISRDDSKNSLYLQMNSLRAEDTAVYYCVRHGNFGNSYVSWFAYWGQGTLVTVSS
chain 2: QAVVTQEPSLTVSPGGTVTLTCRSSTGAVTTSNYANWVQQKPGQAPRGLIGGTNKRAPWTPARFSGSLLGGKAALTLSGAQAEDEADYYCALWYSNLWVFGGGTKLTVLRTVAAQVQLQESGPGLVKPSQTLSLTCTVSGGSISTSGMGVGWIRDHPGKCLEWIGHIWWDDDKRYNPALKSRVTISVDTSKNQFSLKLSSVTAADTAVYYCARMELWSYYFDYWGQGTTLTVSSASEPKSSDKTHTCPPCPAPPVAGPSVFLFPPKPKDTLMISRTPEVTCVVVDVSQEDPEVKFNWYVDGVEVHNAKTKPREEQFNSTYRVVSVLTVLHQDWLNGKEYKCKVSNKGLPSSIEKTISKAKGQPREPQVYTLPPSRDELTKNQVSLWCLVKGFYPSDIAVEWESNGQPENNYKTTPPVLDSDGSFFLYSKLTVDKSRWQQGNVFSCSVMHEALHNHYTQKSLSLSP
heavy: QVQLVQSGAEVKKPGSSVKVSCKASGYAFSYSWINWVRQAPGQGLEWMGRIFPGDGDTDYNGKFKGRVTITADKSTSTAYMELSSLRSEDTAVYYCARNVFDGYWLVYWGQGTLVTVSSASTKGPSVFPLAPSSKSTSGGTAALGCLVKDYFPEPVTVSWNSGALTSGVHTFPAVLQSSGLYSLSSVVTVPSSSLGTQTYICNVNHKPSNTKVDKKVEPKSCDKTHTCPPCPAPPVAGPSVFLFPPKPKDTLMISRTPEVTCVVVDVSQEDPEVKFNWYVDGVEVHNAKTKPREEQFNSTYRVVSVLTVLHQDWLNGKEYKCKVSNKGLPSSIEKTISKAKGQPREPQVYTLPPSRDELTKNQVSLSCAVKGFYPSDIAVEWESNGQPENNYKTTPPVLDSDGSFFLVSKLTVDKSRWQQGNVFSCSVMHEALHNRFTQKSLSLSP
light: DIVMTQTPLSLPVTPGEPASISCRSSKSLLHSNGITYLYWYLQKPGQSPQLLIYQMSNLVSGVPDRFSGSGSGTDFTLKISRVEAEDVGVYYCAQNLELPYTFGGGTKVEIKRTVAAPSVFIFPPSDEQLKSGTASVVCLLNNFYPREAKVQWKVDNALQSGNSQESVTEQDSKDSTYSLSSTLTLSKADYEKHKVYACEVTHQGLSSPVTKSFNRGEC
notes: Tri-specific antibody of four polypeptide chains
For the molecule B2, the “EC50 of killing of K562-CD20 target cells by PBMC effector cells (absorbance at OD490)” value in experiment [3] turned out to be 0.00122 nM. In addition, in the experiment with human CD3ε antigen [4], the Kd turned out to be 25 nM, the koff stood at 0.00835 s⁻¹ and the kon turned out to be 334000 M⁻¹ s⁻¹. Moreover, in the experiment with human CD19 antigen [5], the affinity, expressed as Kd, was 1.32 nM; the koff is 0.000273 s⁻¹; the kon stood at 207000 M⁻¹ s⁻¹.
